Experiment [1] deals with T1, human calcitonin receptor (human, UniProt P30988 25-474).
T1 sequence (looked up): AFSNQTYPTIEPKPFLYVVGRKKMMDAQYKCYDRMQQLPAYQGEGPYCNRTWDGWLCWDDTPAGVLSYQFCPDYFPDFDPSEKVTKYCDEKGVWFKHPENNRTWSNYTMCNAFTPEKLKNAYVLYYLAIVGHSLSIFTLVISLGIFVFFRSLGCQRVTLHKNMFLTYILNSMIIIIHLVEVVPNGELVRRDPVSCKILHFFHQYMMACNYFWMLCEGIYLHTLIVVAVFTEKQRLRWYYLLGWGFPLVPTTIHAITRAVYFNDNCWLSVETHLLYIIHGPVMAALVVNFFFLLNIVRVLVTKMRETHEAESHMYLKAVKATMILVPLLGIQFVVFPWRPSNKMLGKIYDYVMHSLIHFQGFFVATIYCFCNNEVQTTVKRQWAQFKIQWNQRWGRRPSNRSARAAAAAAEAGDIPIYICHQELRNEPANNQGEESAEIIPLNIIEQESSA
The experiment is described as follows: cell-based or functional assay.

Experiment [2] has as its target T2, human amylin receptor (amylin 3(a) receptor: human calcitonin receptor co-expressed with RAMP-3) (human, UniProt P30988 25-474; O60896 24-148, limits assumed).
T2 sequence (looked up) 1: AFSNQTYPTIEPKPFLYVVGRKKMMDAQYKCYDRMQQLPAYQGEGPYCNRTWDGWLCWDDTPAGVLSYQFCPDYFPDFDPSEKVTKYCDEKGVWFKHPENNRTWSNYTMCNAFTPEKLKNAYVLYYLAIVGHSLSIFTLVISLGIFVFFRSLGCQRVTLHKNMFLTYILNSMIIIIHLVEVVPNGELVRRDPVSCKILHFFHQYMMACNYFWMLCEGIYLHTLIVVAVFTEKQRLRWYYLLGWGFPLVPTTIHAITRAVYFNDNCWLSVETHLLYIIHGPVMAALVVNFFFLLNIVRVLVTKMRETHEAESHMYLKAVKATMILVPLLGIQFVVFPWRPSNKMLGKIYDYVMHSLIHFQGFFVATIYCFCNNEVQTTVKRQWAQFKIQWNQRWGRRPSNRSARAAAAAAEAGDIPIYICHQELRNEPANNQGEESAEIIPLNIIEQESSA
T2 sequence (looked up) 2: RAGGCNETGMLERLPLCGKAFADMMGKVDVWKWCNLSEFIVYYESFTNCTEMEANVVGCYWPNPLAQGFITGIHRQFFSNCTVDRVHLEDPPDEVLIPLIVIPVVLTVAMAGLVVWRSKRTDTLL
Briefly: cell-based or functional assay.

Numbered stars: 1 amine (or outer) side, 2 acyl side, 3 side chain; on linkers, the order of the positions; unused ones are H or OH. Bridge positions count the residues as written; N and C are the ends. Side chains are listed from the residue outwards. Ends that are not written are not given here. * marks the point of attachment. C20 diacid = O=C(O)CCCCCCCCCCCCCCCCCCC(=O)*; γGlu = O=C(O)[C@H](CCC(=O)[*:2])N[*:1]; AEEA = NCCOCCOCC(=O)O

B1: N^α1-[(4S)-4-carboxy-4-(19-carboxynonadecanoylamino)butanoyl]-[Arg17,Pro21,Pro27,His34]-h-amylin (peptide)
peptide: KCNTATCATQRLANFLRHSSPNFGAIPSSTNVGHNTY
modifications: alpha amino group of the N-terminal residue (Lys1) acylated with C20 diacid-gGlu; disulfide bridge Cys2-Cys7; C-terminal amide
notes: also called compound 40
Turning to B1, the “Ratio hCT/hAmylin funct. (hCTR EC50 against hAmylin-R EC50)” value in experiment [1] was determined as 16.4. Moreover, the “hAmylin-R funct. EC50” value in experiment [2] was determined as 0.164 nM.

B2: N^ε1-[2-[2-[2-[[(4S)-4-carboxy-4-(19-carboxynonadecanoylamino)butanoyl]amino]ethoxy]ethoxy]acetyl]-[Ala14,Arg17,Pro21,Pro27,Pro31]-h-amylin (peptide)
peptide: K([AEEA-γGlu-C20 diacid])CNTATCATQRLAAFLRHSSPNFGAIPSSTPVGSNTY-NH2
modifications: disulfide 2-7; N-terminus assumed
SMILES: CC[C@H](C)[C@H](NC(=O)[C@H](C)NC(=O)CNC(=O)[C@H](Cc1ccccc1)NC(=O)[C@H](CC(N)=O)NC(=O)[C@@H]1CCCN1C(=O)[C@H](CO)NC(=O)[C@H](CO)NC(=O)[C@H](Cc1c[nH]cn1)NC(=O)[C@H](CCCNC(=N)N)NC(=O)[C@H](CC(C)C)NC(=O)[C@H](Cc1ccccc1)NC(=O)[C@H](C)NC(=O)[C@H](C)NC(=O)[C@H](CC(C)C)NC(=O)[C@H](CCCNC(=N)N)NC(=O)[C@H](CCC(N)=O)NC(=O)[C@@H](NC(=O)[C@H](C)NC(=O)[C@@H]1CSSC[C@H](NC(=O)[C@@H](N)CCCCNC(=O)COCCOCCNC(=O)CC[C@H](NC(=O)CCCCCCCCCCCCCCCCCCC(=O)O)C(=O)O)C(=O)N[C@@H](CC(N)=O)C(=O)N[C@@H]([C@@H](C)O)C(=O)N[C@@H](C)C(=O)N[C@@H]([C@@H](C)O)C(=O)N1)[C@@H](C)O)C(=O)N1CCC[C@H]1C(=O)N[C@@H](CO)C(=O)N[C@@H](CO)C(=O)N[C@H](C(=O)N1CCC[C@H]1C(=O)N[C@H](C(=O)NCC(=O)N[C@@H](CO)C(=O)N[C@@H](CC(N)=O)C(=O)N[C@H](C(=O)N[C@@H](Cc1ccc(O)cc1)C(N)=O)[C@@H](C)O)C(C)C)[C@@H](C)O
notes: also called compound 72
Take B2: in experiment [1], the “Ratio hCT/hAmylin funct. (hCTR EC50 against hAmylin-R EC50)” value was found to be 44.9 and the “hCTR funct. EC50” value was 4.76 nM. Further, in experiment [2], the “hAmylin-R funct. EC50” value is 0.106 nM.

B3: N^ε1-[2-[2-[2-[[(4S)-4-carboxy-4-(19-carboxynonadecanoylamino)butanoyl]amino]ethoxy]ethoxy]acetyl]-[Arg14,Arg17,Pro21,Pro27,Pro31]-h-amylin (peptide)
peptide: K([AEEA-γGlu-C20 diacid])CNTATCATQRLARFLRHSSPNFGAIPSSTPVGSNTY-NH2
modifications: disulfide 2-7; N-terminus assumed
SMILES: CC[C@H](C)[C@H](NC(=O)[C@H](C)NC(=O)CNC(=O)[C@H](Cc1ccccc1)NC(=O)[C@H](CC(N)=O)NC(=O)[C@@H]1CCCN1C(=O)[C@H](CO)NC(=O)[C@H](CO)NC(=O)[C@H](Cc1c[nH]cn1)NC(=O)[C@H](CCCNC(=N)N)NC(=O)[C@H](CC(C)C)NC(=O)[C@H](Cc1ccccc1)NC(=O)[C@H](CCCNC(=N)N)NC(=O)[C@H](C)NC(=O)[C@H](CC(C)C)NC(=O)[C@H](CCCNC(=N)N)NC(=O)[C@H](CCC(N)=O)NC(=O)[C@@H](NC(=O)[C@H](C)NC(=O)[C@@H]1CSSC[C@H](NC(=O)[C@@H](N)CCCCNC(=O)COCCOCCNC(=O)CC[C@H](NC(=O)CCCCCCCCCCCCCCCCCCC(=O)O)C(=O)O)C(=O)N[C@@H](CC(N)=O)C(=O)N[C@@H]([C@@H](C)O)C(=O)N[C@@H](C)C(=O)N[C@@H]([C@@H](C)O)C(=O)N1)[C@@H](C)O)C(=O)N1CCC[C@H]1C(=O)N[C@@H](CO)C(=O)N[C@@H](CO)C(=O)N[C@H](C(=O)N1CCC[C@H]1C(=O)N[C@H](C(=O)NCC(=O)N[C@@H](CO)C(=O)N[C@@H](CC(N)=O)C(=O)N[C@H](C(=O)N[C@@H](Cc1ccc(O)cc1)C(N)=O)[C@@H](C)O)C(C)C)[C@@H](C)O
notes: also called compound 64
Consider B3, for which, in experiment [1], the “Ratio hCT/hAmylin funct. (hCTR EC50 against hAmylin-R EC50)” value is 60.7 and the “hCTR funct. EC50” value came out at 22.9 nM. Moreover, the “hAmylin-R funct. EC50” value in experiment [2] was found to be 0.378 nM.

B4: N^ε1-[2-[2-[2-[[(4S)-4-carboxy-4-(19-carboxynonadecanoylamino)butanoyl]amino]ethoxy]ethoxy]acetyl]-[Arg17,Pro21,Pro27,Pro28,Pro34]-h-amylin (peptide)
peptide: K([AEEA-γGlu-C20 diacid])CNTATCATQRLANFLRHSSPNFGAIPPSTNVGPNTY-NH2
modifications: disulfide 2-7; N-terminus assumed
SMILES: CC[C@H](C)[C@H](NC(=O)[C@H](C)NC(=O)CNC(=O)[C@H](Cc1ccccc1)NC(=O)[C@H](CC(N)=O)NC(=O)[C@@H]1CCCN1C(=O)[C@H](CO)NC(=O)[C@H](CO)NC(=O)[C@H](Cc1c[nH]cn1)NC(=O)[C@H](CCCNC(=N)N)NC(=O)[C@H](CC(C)C)NC(=O)[C@H](Cc1ccccc1)NC(=O)[C@H](CC(N)=O)NC(=O)[C@H](C)NC(=O)[C@H](CC(C)C)NC(=O)[C@H](CCCNC(=N)N)NC(=O)[C@H](CCC(N)=O)NC(=O)[C@@H](NC(=O)[C@H](C)NC(=O)[C@@H]1CSSC[C@H](NC(=O)[C@@H](N)CCCCNC(=O)COCCOCCNC(=O)CC[C@H](NC(=O)CCCCCCCCCCCCCCCCCCC(=O)O)C(=O)O)C(=O)N[C@@H](CC(N)=O)C(=O)N[C@@H]([C@@H](C)O)C(=O)N[C@@H](C)C(=O)N[C@@H]([C@@H](C)O)C(=O)N1)[C@@H](C)O)C(=O)N1CCC[C@H]1C(=O)N1CCC[C@H]1C(=O)N[C@@H](CO)C(=O)N[C@H](C(=O)N[C@@H](CC(N)=O)C(=O)N[C@H](C(=O)NCC(=O)N1CCC[C@H]1C(=O)N[C@@H](CC(N)=O)C(=O)N[C@H](C(=O)N[C@@H](Cc1ccc(O)cc1)C(N)=O)[C@@H](C)O)C(C)C)[C@@H](C)O
notes: also called compound 55
As for B4, in experiment [1], the “Ratio hCT/hAmylin funct. (hCTR EC50 against hAmylin-R EC50)” value amounted to 10.8 and the “hCTR funct. EC50” value is 0.731 nM. Moreover, the “hAmylin-R funct. EC50” value in experiment [2] stood at 0.068 nM.
Taken in the same sequence, the figures for K([AEEA-γGlu-C20 diacid])CNTATCATQRLANFLRHSSPNFGAIPPSTPVGSNTY-NH2 (disulfide 2-7, also called compound 53) were 9.8, 0.625 nM and 0.064 nM.

B5: N^ε1-[2-[2-[2-[[(4S)-4-carboxy-4-(19-carboxynonadecanoylamino)butanoyl]amino]ethoxy]ethoxy]acetyl]-[Arg17,Pro21,Pro27,His34]-h-amylin (peptide)
peptide: K([AEEA-γGlu-C20 diacid])CNTATCATQRLANFLRHSSPNFGAIPSSTNVGHNTY-NH2
modifications: disulfide 2-7; N-terminus assumed
SMILES: CC[C@H](C)[C@H](NC(=O)[C@H](C)NC(=O)CNC(=O)[C@H](Cc1ccccc1)NC(=O)[C@H](CC(N)=O)NC(=O)[C@@H]1CCCN1C(=O)[C@H](CO)NC(=O)[C@H](CO)NC(=O)[C@H](Cc1c[nH]cn1)NC(=O)[C@H](CCCNC(=N)N)NC(=O)[C@H](CC(C)C)NC(=O)[C@H](Cc1ccccc1)NC(=O)[C@H](CC(N)=O)NC(=O)[C@H](C)NC(=O)[C@H](CC(C)C)NC(=O)[C@H](CCCNC(=N)N)NC(=O)[C@H](CCC(N)=O)NC(=O)[C@@H](NC(=O)[C@H](C)NC(=O)[C@@H]1CSSC[C@H](NC(=O)[C@@H](N)CCCCNC(=O)COCCOCCNC(=O)CC[C@H](NC(=O)CCCCCCCCCCCCCCCCCCC(=O)O)C(=O)O)C(=O)N[C@@H](CC(N)=O)C(=O)N[C@@H]([C@@H](C)O)C(=O)N[C@@H](C)C(=O)N[C@@H]([C@@H](C)O)C(=O)N1)[C@@H](C)O)C(=O)N1CCC[C@H]1C(=O)N[C@@H](CO)C(=O)N[C@@H](CO)C(=O)N[C@H](C(=O)N[C@@H](CC(N)=O)C(=O)N[C@H](C(=O)NCC(=O)N[C@@H](Cc1c[nH]cn1)C(=O)N[C@@H](CC(N)=O)C(=O)N[C@H](C(=O)N[C@@H](Cc1ccc(O)cc1)C(N)=O)[C@@H](C)O)C(C)C)[C@@H](C)O
notes: also called compound 76
Turning to B5, in experiment [1], the “Ratio hCT/hAmylin funct. (hCTR EC50 against hAmylin-R EC50)” value is 24.8 and the “hCTR funct. EC50” value was found to be 7.37 nM. The “hAmylin-R funct. EC50” value in experiment [2] came to 0.297 nM.

B6: N^ε1-[2-[2-[2-[[(4S)-4-carboxy-4-(19-carboxynonadecanoylamino)butanoyl]amino]ethoxy]ethoxy]acetyl]-[Arg17,Pro21,Pro27,Arg34]-h-amylin (peptide)
peptide: K([AEEA-γGlu-C20 diacid])CNTATCATQRLANFLRHSSPNFGAIPSSTNVGRNTY-NH2
modifications: disulfide 2-7; N-terminus assumed
SMILES: CC[C@H](C)[C@H](NC(=O)[C@H](C)NC(=O)CNC(=O)[C@H](Cc1ccccc1)NC(=O)[C@H](CC(N)=O)NC(=O)[C@@H]1CCCN1C(=O)[C@H](CO)NC(=O)[C@H](CO)NC(=O)[C@H](Cc1c[nH]cn1)NC(=O)[C@H](CCCNC(=N)N)NC(=O)[C@H](CC(C)C)NC(=O)[C@H](Cc1ccccc1)NC(=O)[C@H](CC(N)=O)NC(=O)[C@H](C)NC(=O)[C@H](CC(C)C)NC(=O)[C@H](CCCNC(=N)N)NC(=O)[C@H](CCC(N)=O)NC(=O)[C@@H](NC(=O)[C@H](C)NC(=O)[C@@H]1CSSC[C@H](NC(=O)[C@@H](N)CCCCNC(=O)COCCOCCNC(=O)CC[C@H](NC(=O)CCCCCCCCCCCCCCCCCCC(=O)O)C(=O)O)C(=O)N[C@@H](CC(N)=O)C(=O)N[C@@H]([C@@H](C)O)C(=O)N[C@@H](C)C(=O)N[C@@H]([C@@H](C)O)C(=O)N1)[C@@H](C)O)C(=O)N1CCC[C@H]1C(=O)N[C@@H](CO)C(=O)N[C@@H](CO)C(=O)N[C@H](C(=O)N[C@@H](CC(N)=O)C(=O)N[C@H](C(=O)NCC(=O)N[C@@H](CCCNC(=N)N)C(=O)N[C@@H](CC(N)=O)C(=O)N[C@H](C(=O)N[C@@H](Cc1ccc(O)cc1)C(N)=O)[C@@H](C)O)C(C)C)[C@@H](C)O
notes: also called compound 78
In the case of B6, in experiment [1], the “Ratio hCT/hAmylin funct. (hCTR EC50 against hAmylin-R EC50)” value was 25.8 and the “hCTR funct. EC50” value is 8.17 nM. Moreover, the “hAmylin-R funct. EC50” value in experiment [2] amounted to 0.316 nM.

(Values after patent US20140087995A1 (published 2014).)
